Values of other authors in article PMC11764136.

Biological target: amyloid-β oligomers Aβ (Homo sapiens) (UniProt P05067)

For PrPC (from UniProt P04156), the Kd is listed as 4 nM.
